Source: publication PMC9482650, “Quantitative fragmentomics allow affinity mapping of interactomes” (Nature Communications, 2022)

T1: APBA2_1, Q99767
T1 sequence (Q99767 563-664, limits assumed, looked up): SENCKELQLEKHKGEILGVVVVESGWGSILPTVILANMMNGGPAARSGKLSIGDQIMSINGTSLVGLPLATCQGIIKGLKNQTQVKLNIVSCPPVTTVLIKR

T2: APBA3_1, O96018
T2 sequence (O96018 389-490, limits assumed, looked up): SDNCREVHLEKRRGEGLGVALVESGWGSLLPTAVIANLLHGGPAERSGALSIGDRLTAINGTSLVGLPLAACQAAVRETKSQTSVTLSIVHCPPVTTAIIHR

T3: ARHGEF11, O15085
T3 sequence (O15085 42-136, limits assumed, looked up): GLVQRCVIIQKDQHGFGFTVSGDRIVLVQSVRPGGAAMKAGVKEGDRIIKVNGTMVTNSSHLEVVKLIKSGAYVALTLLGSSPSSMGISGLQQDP

T4: CARD11, Q9BXL7
T4 sequence (Q9BXL7 662-765, limits assumed, looked up): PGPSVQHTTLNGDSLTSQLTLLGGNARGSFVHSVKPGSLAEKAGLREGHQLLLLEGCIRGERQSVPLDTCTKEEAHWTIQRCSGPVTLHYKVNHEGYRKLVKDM

T5: DVL3, Q92997
T5 sequence (Q92997 244-331, limits assumed, looked up): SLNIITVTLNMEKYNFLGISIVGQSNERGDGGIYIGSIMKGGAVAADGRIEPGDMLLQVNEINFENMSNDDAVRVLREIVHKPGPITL

T6: FRMPD1, Q5SYB0
T6 sequence (Q5SYB0 52-145, limits assumed, looked up): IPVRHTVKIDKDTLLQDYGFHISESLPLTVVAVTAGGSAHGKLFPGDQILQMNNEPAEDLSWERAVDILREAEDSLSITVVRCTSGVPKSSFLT

T7: GRIP1_2, Q9Y3R0
T7 sequence (Q9Y3R0 145-248, limits assumed, looked up): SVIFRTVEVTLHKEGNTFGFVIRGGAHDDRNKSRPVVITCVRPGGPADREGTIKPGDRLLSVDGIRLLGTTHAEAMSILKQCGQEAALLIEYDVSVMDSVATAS

T8: MPP6, Q9NZW5
T8 sequence (Q9NZW5 125-219, limits assumed, looked up): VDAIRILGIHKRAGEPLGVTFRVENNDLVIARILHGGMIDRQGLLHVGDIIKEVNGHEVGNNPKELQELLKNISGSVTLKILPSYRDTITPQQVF

T9: NHERF3_1, Q5T2W1
T9 sequence (Q5T2W1 4-100, limits assumed, looked up): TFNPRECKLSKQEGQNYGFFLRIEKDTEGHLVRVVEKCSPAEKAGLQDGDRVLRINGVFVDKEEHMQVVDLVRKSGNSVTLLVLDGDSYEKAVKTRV

T10: PCLO, Q9Y6V0
T10 sequence (Q9Y6V0 4491-4600, limits assumed, looked up): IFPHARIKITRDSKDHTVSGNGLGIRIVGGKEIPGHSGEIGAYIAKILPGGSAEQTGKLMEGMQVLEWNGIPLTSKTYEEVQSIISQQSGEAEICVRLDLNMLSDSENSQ

T11: SNTA1, Q13424
T11 sequence (Q13424 82-180, limits assumed, looked up): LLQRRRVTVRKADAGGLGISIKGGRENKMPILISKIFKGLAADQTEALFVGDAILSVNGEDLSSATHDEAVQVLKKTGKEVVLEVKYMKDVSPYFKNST

T12: TIAM2, Q8IVF5
T12 sequence (Q8IVF5 885-986, limits assumed, looked up): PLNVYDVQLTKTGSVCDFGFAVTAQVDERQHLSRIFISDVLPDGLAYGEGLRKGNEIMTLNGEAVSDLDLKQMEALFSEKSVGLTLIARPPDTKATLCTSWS

T13: TJP3_3, O95049
T13 sequence (O95049 375-456, limits assumed, looked up): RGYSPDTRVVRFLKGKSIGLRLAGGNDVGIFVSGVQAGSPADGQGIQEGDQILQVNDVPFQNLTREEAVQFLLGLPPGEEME

B1: FZD8, Q9H461 (peptide)
chain: YPKQMPLSQV
B2: NOS1AP, O75052 (peptide)
chain: GDGLDDEIAV

biological target: T1, APBA2_1, Q99767; experiment: holdup assay; parameters: key: below the threshold = too weak to quantify, mostly under pKd 3.1 to 4; settings: plain residues with an end cap or a label only (N-terminal biotin on a linker: ado-ado)

| Binder | pKd |
| --- | --- |
| B1 | below the threshold |
| B2 | below the threshold |

biological target: T2, APBA3_1, O96018; experiment: holdup assay; parameters: key: below the threshold = too weak to quantify, mostly under pKd 3.1 to 4; settings: plain residues with an end cap or a label only (N-terminal biotin on a linker: ado-ado)

| Binder | pKd |
| --- | --- |
| B1 | below the threshold |
| B2 | below the threshold |

biological target: T3, ARHGEF11, O15085; experiment: holdup assay; parameters: key: below the threshold = too weak to quantify, mostly under pKd 3.1 to 4; settings: plain residues with an end cap or a label only (N-terminal biotin on a linker: ado-ado)

| Binder | pKd |
| --- | --- |
| B1 | 3.89 |
| B2 | 4.37 |

biological target: ARHGEF12, Q9NZN5-2; experiment: holdup assay; parameters: key: below the threshold = too weak to quantify, mostly under pKd 3.1 to 4; settings: plain residues with an end cap or a label only (N-terminal biotin on a linker: ado-ado)
Sequence (Q9NZN5 other isoform, or with tags, fused parts or gaps): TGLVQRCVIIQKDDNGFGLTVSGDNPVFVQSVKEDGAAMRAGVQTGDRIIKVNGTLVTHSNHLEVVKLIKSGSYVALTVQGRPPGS

| Binder | pKd |
| --- | --- |
| B1 | 4.09 |
| B2 | below the threshold |

biological target: T4, CARD11, Q9BXL7; experiment: holdup assay; parameters: key: below the threshold = too weak to quantify, mostly under pKd 3.1 to 4; settings: plain residues with an end cap or a label only (N-terminal biotin on a linker: ado-ado)

| Binder | pKd |
| --- | --- |
| B1 | below the threshold |
| B2 | below the threshold |

biological target: CASK, O14936; experiment: holdup assay; parameters: key: below the threshold = too weak to quantify, mostly under pKd 3.1 to 4; settings: plain residues with an end cap or a label only (N-terminal biotin on a linker: ado-ado)
Sequence (O14936 487-570): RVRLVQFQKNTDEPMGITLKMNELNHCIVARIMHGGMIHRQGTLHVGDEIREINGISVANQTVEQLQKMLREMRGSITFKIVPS

| Binder | pKd |
| --- | --- |
| B1 | below the threshold |
| B2 | below the threshold |

biological target: DLG5_1, Q8TDM6; experiment: holdup assay; parameters: key: below the threshold = too weak to quantify, mostly under pKd 3.1 to 4; settings: plain residues with an end cap or a label only (N-terminal biotin on a linker: ado-ado)
Sequence (Q8TDM6 617-713): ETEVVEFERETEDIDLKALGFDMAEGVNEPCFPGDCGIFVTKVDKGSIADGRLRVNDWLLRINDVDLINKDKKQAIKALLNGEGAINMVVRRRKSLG

| Binder | pKd |
| --- | --- |
| B1 | below the threshold |
| B2 | below the threshold |

biological target: T5, DVL3, Q92997; experiment: holdup assay; parameters: key: below the threshold = too weak to quantify, mostly under pKd 3.1 to 4; settings: plain residues with an end cap or a label only (N-terminal biotin on a linker: ado-ado)

| Binder | pKd |
| --- | --- |
| B1 | below the threshold |
| B2 | below the threshold |

biological target: T6, FRMPD1, Q5SYB0; experiment: holdup assay; parameters: key: below the threshold = too weak to quantify, mostly under pKd 3.1 to 4; settings: plain residues with an end cap or a label only (N-terminal biotin on a linker: ado-ado)

| Binder | pKd |
| --- | --- |
| B1 | below the threshold |
| B2 | below the threshold |

biological target: T7, GRIP1_2, Q9Y3R0; experiment: holdup assay; parameters: key: below the threshold = too weak to quantify, mostly under pKd 3.1 to 4; settings: plain residues with an end cap or a label only (N-terminal biotin on a linker: ado-ado)

| Binder | pKd |
| --- | --- |
| B1 | below the threshold |
| B2 | below the threshold |

biological target: GRIP2_3, Q9C0E4; experiment: holdup assay; parameters: key: below the threshold = too weak to quantify, mostly under pKd 3.1 to 4; settings: plain residues with an end cap or a label only (N-terminal biotin on a linker: ado-ado)
Sequence (Q9C0E4 238-339): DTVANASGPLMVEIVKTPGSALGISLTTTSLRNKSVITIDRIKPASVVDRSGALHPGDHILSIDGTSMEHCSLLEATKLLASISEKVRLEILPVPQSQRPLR

| Binder | pKd |
| --- | --- |
| B1 | below the threshold |
| B2 | below the threshold |

biological target: GRIP2_6, Q9C0E4; experiment: holdup assay; parameters: key: below the threshold = too weak to quantify, mostly under pKd 3.1 to 4; settings: plain residues with an end cap or a label only (N-terminal biotin on a linker: ado-ado)
Sequence (Q9C0E4 648-740): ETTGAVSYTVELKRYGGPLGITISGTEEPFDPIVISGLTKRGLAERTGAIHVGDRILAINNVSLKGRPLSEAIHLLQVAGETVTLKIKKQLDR

| Binder | pKd |
| --- | --- |
| B1 | below the threshold |
| B2 | below the threshold |

biological target: HTRA2, O43464; experiment: holdup assay; parameters: key: below the threshold = too weak to quantify, mostly under pKd 3.1 to 4; settings: plain residues with an end cap or a label only (N-terminal biotin on a linker: ado-ado)
Sequence (O43464 355-458): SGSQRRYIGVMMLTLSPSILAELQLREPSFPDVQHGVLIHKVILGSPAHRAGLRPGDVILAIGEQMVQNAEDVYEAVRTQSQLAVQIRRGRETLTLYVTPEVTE

| Binder | pKd |
| --- | --- |
| B1 | below the threshold |
| B2 | below the threshold |

biological target: IL16_1, Q14005; experiment: holdup assay; parameters: key: below the threshold = too weak to quantify, mostly under pKd 3.1 to 4; settings: plain residues with an end cap or a label only (N-terminal biotin on a linker: ado-ado)
Sequence (Q14005 210-306): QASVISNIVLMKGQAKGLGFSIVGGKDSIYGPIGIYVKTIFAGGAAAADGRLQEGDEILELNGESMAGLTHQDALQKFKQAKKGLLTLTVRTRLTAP

| Binder | pKd |
| --- | --- |
| B1 | below the threshold |
| B2 | below the threshold |

biological target: Inadl_6, Q8NI35; experiment: holdup assay; parameters: key: below the threshold = too weak to quantify, mostly under pKd 3.1 to 4; settings: plain residues with an end cap or a label only (N-terminal biotin on a linker: ado-ado)
Sequence (Q8NI35 1058-1167): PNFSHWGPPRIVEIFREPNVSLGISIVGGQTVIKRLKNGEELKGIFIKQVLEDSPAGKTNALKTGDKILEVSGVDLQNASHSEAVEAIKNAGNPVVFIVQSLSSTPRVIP

| Binder | pKd |
| --- | --- |
| B1 | below the threshold |
| B2 | below the threshold |

biological target: MAGI2_6, Q86UL8; experiment: holdup assay; parameters: key: below the threshold = too weak to quantify, mostly under pKd 3.1 to 4; settings: plain residues with an end cap or a label only (N-terminal biotin on a linker: ado-ado)
Sequence (Q86UL8 1141-1229): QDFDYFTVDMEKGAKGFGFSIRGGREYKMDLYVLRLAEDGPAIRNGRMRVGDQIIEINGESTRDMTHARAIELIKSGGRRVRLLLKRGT

| Binder | pKd |
| --- | --- |
| B1 | below the threshold |
| B2 | below the threshold |

biological target: T8, MPP6, Q9NZW5; experiment: holdup assay; parameters: key: below the threshold = too weak to quantify, mostly under pKd 3.1 to 4; settings: plain residues with an end cap or a label only (N-terminal biotin on a linker: ado-ado)

| Binder | pKd |
| --- | --- |
| B1 | below the threshold |
| B2 | below the threshold |

biological target: T9, NHERF3_1, Q5T2W1; experiment: holdup assay; parameters: key: below the threshold = too weak to quantify, mostly under pKd 3.1 to 4; settings: plain residues with an end cap or a label only (N-terminal biotin on a linker: ado-ado)

| Binder | pKd |
| --- | --- |
| B1 | below the threshold |
| B2 | below the threshold |

biological target: NHERF4_2, Q86UT5; experiment: holdup assay; parameters: key: below the threshold = too weak to quantify, mostly under pKd 3.1 to 4; settings: plain residues with an end cap or a label only (N-terminal biotin on a linker: ado-ado)
Sequence (Q86UT5 220-308): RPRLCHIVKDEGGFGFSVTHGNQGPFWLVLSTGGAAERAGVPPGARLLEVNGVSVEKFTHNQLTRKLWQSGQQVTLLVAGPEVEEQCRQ

| Binder | pKd |
| --- | --- |
| B1 | below the threshold |
| B2 | below the threshold |

biological target: NOS1, P29475; experiment: holdup assay; parameters: key: below the threshold = too weak to quantify, mostly under pKd 3.1 to 4; settings: plain residues with an end cap or a label only (N-terminal biotin on a linker: ado-ado)
Sequence (P29475 9-101): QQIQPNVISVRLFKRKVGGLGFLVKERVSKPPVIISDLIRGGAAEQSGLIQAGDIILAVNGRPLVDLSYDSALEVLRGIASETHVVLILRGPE

| Binder | pKd |
| --- | --- |
| B1 | below the threshold |
| B2 | 3.8 |

biological target: T10, PCLO, Q9Y6V0; experiment: holdup assay; parameters: key: below the threshold = too weak to quantify, mostly under pKd 3.1 to 4; settings: plain residues with an end cap or a label only (N-terminal biotin on a linker: ado-ado)

| Binder | pKd |
| --- | --- |
| B1 | below the threshold |
| B2 | below the threshold |

biological target: PICK1, Q9NRD5; experiment: holdup assay; parameters: key: below the threshold = too weak to quantify, mostly under pKd 3.1 to 4; settings: plain residues with an end cap or a label only (N-terminal biotin on a linker: ado-ado)
Sequence (Q9NRD5 17-115): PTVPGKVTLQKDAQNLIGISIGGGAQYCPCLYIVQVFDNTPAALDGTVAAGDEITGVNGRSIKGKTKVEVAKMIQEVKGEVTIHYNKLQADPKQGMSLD

| Binder | pKd |
| --- | --- |
| B1 | below the threshold |
| B2 | 4.38 |

biological target: T11, SNTA1, Q13424; experiment: holdup assay; parameters: key: below the threshold = too weak to quantify, mostly under pKd 3.1 to 4; settings: plain residues with an end cap or a label only (N-terminal biotin on a linker: ado-ado)

| Binder | pKd |
| --- | --- |
| B1 | 3.67 |
| B2 | 3.75 |

biological target: T12, TIAM2, Q8IVF5; experiment: holdup assay; parameters: key: below the threshold = too weak to quantify, mostly under pKd 3.1 to 4; settings: plain residues with an end cap or a label only (N-terminal biotin on a linker: ado-ado)

| Binder | pKd |
| --- | --- |
| B1 | below the threshold |
| B2 | 3.8 |

biological target: T13, TJP3_3, O95049; experiment: holdup assay; parameters: key: below the threshold = too weak to quantify, mostly under pKd 3.1 to 4; settings: plain residues with an end cap or a label only (N-terminal biotin on a linker: ado-ado)

| Binder | pKd |
| --- | --- |
| B1 | below the threshold |
| B2 | below the threshold |
